Laboratory results: patent US20220135684A1 (Xencor, published 2022)
Numbering of substitutions follows the chain as printed. Names may count otherwise.

B1: XENP28428 (antibody, V domains shown)
VH: EVQLLESGGGLVQPGGSLRLSCAASGFTFSSYAMSWVRQAPGKGLEWVSTISGSGDSTYYADSVKGRFTISRDNSKNTLYLQMNSLRAEDTAVYYCAKSGPGLRQVGFDYWGQGTLVTVSS
VL: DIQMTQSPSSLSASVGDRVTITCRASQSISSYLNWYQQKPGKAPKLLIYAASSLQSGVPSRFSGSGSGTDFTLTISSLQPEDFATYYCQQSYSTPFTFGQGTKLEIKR
notes: Bivalent mAb, IgG1 backbone with E233P/L234V/L235A/G236del/S267K ablation variant; also called anti-CD28 mAb based on clone 1A7; parental αCD28 mAb 1A7; copies: 2 + 2
B2: XENP37561 (bispecific antibody)
heavy: EVQLLESGGGLVQPGGSLRLSCAASGFTFSSYDMSWVRQAPGKRLEWVSTISSGGSFTHYPDSVKGRFTISRDNSKNTLYLQMNSLRAEDTAVYYCVRRSGDWYFDVWGAGTTVTVSSASTKGPSVFPLAPSSKSTSGGTAALGCLVKDYFPEPVTVSWNSGALTSGVHTFPAVLQSSGLYSLSSVVTVPSSSLGTQTYICNVNHKPSDTKVDKKVEPKSCDKTHTCPPCPAPPVAGPSVFLFPPKPKDTLMISRTPEVTCVVVDVKHEDPEVKFNWYVDGVEVHNAKTKPREEEYNSTYRVVSVLTVLHQDWLNGKEYKCKVSNKALPAPIEKTISKAKGQPREPQVYTLPPSREEMTKNQVSLTCDVSGFYPSDIAVEWESDGQPENNYKTTPPVLDSDGSFFLYSKLTVDKSRWEQGDVFSCSVMHEALHNHYTQKSLSLSPGK
scFv-Fc: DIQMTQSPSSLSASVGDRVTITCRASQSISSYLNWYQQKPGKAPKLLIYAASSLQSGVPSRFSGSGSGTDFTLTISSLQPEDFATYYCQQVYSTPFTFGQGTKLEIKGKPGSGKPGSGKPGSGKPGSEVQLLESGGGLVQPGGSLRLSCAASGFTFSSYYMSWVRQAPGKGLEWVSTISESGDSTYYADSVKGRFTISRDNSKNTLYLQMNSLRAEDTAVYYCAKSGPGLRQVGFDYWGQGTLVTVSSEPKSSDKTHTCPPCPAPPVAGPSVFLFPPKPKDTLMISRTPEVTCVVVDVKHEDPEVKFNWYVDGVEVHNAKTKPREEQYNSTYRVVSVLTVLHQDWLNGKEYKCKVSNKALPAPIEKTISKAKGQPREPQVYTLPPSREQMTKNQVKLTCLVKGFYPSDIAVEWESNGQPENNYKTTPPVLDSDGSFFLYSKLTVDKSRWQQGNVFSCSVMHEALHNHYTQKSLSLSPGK
light: EIVLTQSPGTLSLSPGERATLSCRVSSSISSSNLHWYQQKPGQSPRPLIYGTSNLASGVPVRFSGSGSGTDYTLTISRLEPEDFAVYYCQQWSSYPLYTFGGGTKVEIKRTVAAPSVFIFPPSDEQLKSGTASVVCLLNNFYPREAKVQWKVDNALQSGNSQESVTEQDSKDSTYSLSSTLTLSKADYEKHKVYACEVTHQGLSSPVTKSFNRGEC
notes: 1+1 Fab-scFv-Fc format; scFv in VL-linker-VH orientation; also called αPDL1×αCD28 bsAb; 1A7_L1.71_H1.14
B3: XENP37412 (bispecific antibody)
heavy: B2 heavy
scFv-Fc: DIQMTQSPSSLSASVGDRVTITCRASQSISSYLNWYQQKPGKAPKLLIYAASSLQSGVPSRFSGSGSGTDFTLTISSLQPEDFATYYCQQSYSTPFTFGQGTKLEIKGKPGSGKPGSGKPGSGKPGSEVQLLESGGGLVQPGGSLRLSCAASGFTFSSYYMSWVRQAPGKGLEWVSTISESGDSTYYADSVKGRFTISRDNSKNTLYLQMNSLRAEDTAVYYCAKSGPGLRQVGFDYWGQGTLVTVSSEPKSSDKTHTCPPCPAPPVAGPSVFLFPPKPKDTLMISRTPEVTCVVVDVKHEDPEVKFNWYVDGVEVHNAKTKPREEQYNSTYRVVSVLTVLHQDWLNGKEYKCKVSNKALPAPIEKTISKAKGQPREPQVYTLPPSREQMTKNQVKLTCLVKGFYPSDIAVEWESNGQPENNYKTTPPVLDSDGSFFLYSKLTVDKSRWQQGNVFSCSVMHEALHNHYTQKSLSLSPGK
light: B2 light
notes: 1+1 Fab-scFv-Fc format; scFv in VL-linker-VH orientation; also called αPDL1×αCD28 bsAb; 1A7_L1_H1.14
B4: XENP37261 (bispecific antibody)
heavy: B2 heavy
scFv-Fc: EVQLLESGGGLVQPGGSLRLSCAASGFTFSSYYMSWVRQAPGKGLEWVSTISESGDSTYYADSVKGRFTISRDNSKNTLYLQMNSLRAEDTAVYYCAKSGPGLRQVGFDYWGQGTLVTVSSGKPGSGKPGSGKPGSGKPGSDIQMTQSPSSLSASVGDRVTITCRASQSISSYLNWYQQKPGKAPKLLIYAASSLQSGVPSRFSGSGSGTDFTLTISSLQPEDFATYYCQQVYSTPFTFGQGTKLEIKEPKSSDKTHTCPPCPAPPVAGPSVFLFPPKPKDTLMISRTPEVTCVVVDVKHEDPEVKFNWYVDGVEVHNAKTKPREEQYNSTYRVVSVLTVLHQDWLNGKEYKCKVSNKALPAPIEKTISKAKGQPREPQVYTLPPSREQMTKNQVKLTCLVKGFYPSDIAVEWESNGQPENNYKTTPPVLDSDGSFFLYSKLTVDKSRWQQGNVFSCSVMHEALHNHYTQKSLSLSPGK
light: B2 light
notes: 1+1 Fab-scFv-Fc format; also called αPDL1×αCD28 bsAb; 1A7_H1.14_L1.71
B5: XENP36233 (bispecific antibody)
heavy: B2 heavy
scFv-Fc: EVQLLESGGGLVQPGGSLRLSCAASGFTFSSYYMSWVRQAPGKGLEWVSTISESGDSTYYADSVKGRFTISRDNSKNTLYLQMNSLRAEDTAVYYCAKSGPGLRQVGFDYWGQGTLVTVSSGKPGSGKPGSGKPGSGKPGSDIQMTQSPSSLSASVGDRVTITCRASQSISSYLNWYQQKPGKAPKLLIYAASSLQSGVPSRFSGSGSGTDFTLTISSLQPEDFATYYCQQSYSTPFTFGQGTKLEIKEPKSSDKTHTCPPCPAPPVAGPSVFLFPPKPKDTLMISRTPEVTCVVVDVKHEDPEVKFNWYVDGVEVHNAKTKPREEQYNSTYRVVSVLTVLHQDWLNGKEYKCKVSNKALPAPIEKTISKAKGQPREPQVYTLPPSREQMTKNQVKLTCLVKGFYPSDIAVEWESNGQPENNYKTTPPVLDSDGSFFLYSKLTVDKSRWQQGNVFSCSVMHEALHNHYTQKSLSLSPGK
light: B2 light
notes: 1+1 Fab-scFv-Fc format, heterodimeric IgG1 Fc with FcγR ablation variants; also called αPDL1×αCD28 bsAb; 2G4 H1L1 Fab × 1A7_H1.14_L1 scFv
B6: XENP37559 (bispecific antibody)
heavy: B2 heavy
scFv-Fc: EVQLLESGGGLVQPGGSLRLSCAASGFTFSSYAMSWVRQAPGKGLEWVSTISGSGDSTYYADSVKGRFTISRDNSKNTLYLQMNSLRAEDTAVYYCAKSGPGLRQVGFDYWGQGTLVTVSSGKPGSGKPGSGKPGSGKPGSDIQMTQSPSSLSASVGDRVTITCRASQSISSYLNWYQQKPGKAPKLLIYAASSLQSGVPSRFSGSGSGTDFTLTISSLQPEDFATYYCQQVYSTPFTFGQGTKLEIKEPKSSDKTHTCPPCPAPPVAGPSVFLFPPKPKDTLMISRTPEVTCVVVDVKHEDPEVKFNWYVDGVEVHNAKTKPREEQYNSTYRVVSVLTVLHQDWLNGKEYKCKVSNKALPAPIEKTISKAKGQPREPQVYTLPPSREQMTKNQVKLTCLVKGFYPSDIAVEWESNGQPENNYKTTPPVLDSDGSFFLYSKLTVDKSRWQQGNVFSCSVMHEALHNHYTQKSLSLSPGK
light: B2 light
notes: 1+1 Fab-scFv-Fc format; also called αPDL1×αCD28 bsAb; 1A7_H1_L1.71
B7: XENP37560 (bispecific antibody)
heavy: B2 heavy
scFv-Fc: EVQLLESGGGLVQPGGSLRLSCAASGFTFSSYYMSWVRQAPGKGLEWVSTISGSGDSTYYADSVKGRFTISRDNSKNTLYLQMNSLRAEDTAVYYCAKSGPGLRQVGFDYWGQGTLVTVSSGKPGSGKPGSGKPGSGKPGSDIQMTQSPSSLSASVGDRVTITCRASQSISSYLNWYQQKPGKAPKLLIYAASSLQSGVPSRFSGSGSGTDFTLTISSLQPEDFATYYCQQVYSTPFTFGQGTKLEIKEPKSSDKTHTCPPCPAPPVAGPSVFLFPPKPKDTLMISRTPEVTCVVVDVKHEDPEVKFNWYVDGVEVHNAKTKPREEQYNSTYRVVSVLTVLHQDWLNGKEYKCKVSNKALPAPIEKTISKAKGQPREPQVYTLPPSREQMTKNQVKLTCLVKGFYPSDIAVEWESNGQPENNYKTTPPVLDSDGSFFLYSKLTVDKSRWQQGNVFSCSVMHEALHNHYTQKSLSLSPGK
light: B2 light
notes: 1+1 Fab-scFv-Fc format; also called αPDL1×αCD28 bsAb; 1A7_H1.1_L1.71
B8: αPDL1×αCD28 bsAb with PDL1 binding domain 2G4_H1.12_L1.66 and CD28 binding domain 1A7_H1.14_L1.71 (bispecific antibody)
heavy: B2 heavy with S31V, G101L
scFv-Fc: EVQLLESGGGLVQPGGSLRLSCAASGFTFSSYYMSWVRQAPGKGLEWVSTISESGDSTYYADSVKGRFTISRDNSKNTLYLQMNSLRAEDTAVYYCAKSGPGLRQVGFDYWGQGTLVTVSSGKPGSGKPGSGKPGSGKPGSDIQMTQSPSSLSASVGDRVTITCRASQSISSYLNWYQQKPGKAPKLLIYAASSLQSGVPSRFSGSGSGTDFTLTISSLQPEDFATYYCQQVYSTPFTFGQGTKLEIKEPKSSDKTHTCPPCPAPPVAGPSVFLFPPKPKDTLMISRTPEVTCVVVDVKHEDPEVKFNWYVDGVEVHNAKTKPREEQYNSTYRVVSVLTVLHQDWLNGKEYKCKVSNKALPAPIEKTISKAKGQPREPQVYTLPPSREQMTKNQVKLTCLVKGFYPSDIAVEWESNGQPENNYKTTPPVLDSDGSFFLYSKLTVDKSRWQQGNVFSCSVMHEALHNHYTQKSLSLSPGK
light: B2 light with S30Q, S32T, S57T
B9: XENP38514 (bispecific antibody)
heavy: B2 heavy with S31V, G101L
scFv-Fc: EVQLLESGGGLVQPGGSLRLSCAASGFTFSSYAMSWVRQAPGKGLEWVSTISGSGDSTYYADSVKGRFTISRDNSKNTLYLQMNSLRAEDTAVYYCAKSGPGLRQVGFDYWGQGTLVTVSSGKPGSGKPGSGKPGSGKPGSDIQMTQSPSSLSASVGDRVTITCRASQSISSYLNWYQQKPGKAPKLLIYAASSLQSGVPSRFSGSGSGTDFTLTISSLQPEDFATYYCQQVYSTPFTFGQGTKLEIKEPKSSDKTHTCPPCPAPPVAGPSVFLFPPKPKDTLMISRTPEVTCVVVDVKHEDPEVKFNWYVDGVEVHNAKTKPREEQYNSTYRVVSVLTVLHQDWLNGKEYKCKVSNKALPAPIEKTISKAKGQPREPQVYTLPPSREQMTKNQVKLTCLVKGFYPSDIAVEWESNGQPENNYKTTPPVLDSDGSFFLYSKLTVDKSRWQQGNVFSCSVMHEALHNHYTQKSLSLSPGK
light: B2 light with S30Q, S32T, N54V, S57T
B10: αPDL1×αCD28 bsAb with PDL1 binding domain 2G4_H1.12_L1.14 and CD28 binding domain 1A7_H1.14_L1.71 (bispecific antibody)
heavy: B2 heavy with S31V, G101L
scFv-Fc: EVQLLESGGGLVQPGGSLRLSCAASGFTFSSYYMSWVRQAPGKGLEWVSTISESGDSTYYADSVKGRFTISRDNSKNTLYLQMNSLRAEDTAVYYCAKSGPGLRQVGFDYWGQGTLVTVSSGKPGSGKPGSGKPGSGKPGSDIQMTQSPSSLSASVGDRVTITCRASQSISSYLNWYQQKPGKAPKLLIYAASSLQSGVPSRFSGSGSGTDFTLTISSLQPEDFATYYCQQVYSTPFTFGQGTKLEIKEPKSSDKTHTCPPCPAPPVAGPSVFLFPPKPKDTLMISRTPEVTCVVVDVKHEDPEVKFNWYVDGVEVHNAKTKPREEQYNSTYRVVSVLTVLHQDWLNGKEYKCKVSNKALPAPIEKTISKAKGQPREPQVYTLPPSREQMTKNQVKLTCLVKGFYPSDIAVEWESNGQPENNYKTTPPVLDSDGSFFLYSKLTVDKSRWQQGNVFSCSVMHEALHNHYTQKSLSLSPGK
light: B2 light with S30Q
notes: also called XENP40409 (non-Xtend analog of XENP40706)
B11: αPDL1×αCD28 bsAb with PDL1 binding domain 2G4_H1.12_L1.24 and CD28 binding domain 1A7_H1.14_L1.71 (bispecific antibody)
heavy: B2 heavy with S31V, G101L
scFv-Fc: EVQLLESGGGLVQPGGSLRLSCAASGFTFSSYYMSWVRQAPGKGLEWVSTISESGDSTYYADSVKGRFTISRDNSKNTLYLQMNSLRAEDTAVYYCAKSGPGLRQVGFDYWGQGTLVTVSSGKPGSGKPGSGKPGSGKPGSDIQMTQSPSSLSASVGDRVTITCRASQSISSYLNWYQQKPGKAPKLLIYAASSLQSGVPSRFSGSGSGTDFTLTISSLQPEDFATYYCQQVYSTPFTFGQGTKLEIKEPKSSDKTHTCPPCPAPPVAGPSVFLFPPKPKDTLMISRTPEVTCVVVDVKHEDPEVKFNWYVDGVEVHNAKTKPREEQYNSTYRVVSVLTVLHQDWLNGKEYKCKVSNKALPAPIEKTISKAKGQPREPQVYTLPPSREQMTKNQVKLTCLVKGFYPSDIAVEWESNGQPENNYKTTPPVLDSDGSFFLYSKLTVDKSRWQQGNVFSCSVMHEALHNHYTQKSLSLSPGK
light: B2 light with S30Q, S32T, N54V, S57T
notes: also called XENP38512; XENP40036
B12: αPDL1×αCD28 bsAb with PDL1 binding domain 2G4_H1.12_L1.68 and CD28 binding domain 1A7_H1.14_L1.71 (bispecific antibody)
heavy: B2 heavy with S31V, G101L
scFv-Fc: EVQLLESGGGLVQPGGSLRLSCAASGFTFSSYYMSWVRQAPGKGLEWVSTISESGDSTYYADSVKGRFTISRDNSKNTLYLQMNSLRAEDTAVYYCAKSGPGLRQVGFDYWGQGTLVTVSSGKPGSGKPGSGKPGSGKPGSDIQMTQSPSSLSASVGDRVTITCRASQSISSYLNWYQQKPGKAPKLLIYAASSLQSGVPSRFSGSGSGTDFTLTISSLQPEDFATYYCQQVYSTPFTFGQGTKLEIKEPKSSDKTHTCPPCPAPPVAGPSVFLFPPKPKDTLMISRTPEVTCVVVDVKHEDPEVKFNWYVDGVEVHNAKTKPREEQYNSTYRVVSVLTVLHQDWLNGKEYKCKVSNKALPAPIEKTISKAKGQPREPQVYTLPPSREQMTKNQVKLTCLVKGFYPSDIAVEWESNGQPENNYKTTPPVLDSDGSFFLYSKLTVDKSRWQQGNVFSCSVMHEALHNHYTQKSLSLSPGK
light: B2 light with S30Q, S32T
B13: XENP27181 (antibody, human IgG1, kappa, V domains shown)
VH: QVQLQESGPGLVKPSETLSLTCAVSGFSLTSYGVHWIRQPPGKGLEWLGVIWPGGGTNFNSALMSRLTISEDTSKNQVSLKLSSVTAADTAVYYCARDRAYGNYLYAMDYWGQGTLVTVSS
VL: DIQMTQSPSSLSASVGDRVTITCRASESVEYYVTSLMQWYQQKPGKAPKLLIYAASNVDSGVPSRFSGSGSGTDFTLTISSLQPEDIATYYCQQSRKVPFTFGGGTKVEIKR
notes: Bivalent mAb, IgG1 backbone with E233P/L234V/L235A/G236del/S267K ablation variant; also called HuTN228; prior art anti-CD28 mAb HuTN228; copies: 2 + 2

Key:
[1] = molecular target: T1, cell-surface CD28 on human PBMCs (human, UniProt P10747 19-220); experiment: flow cytometry on human PBMCs, anti-human Fc secondary
T1 construct: whole, on cells

[2] = molecular target: T2, human CD28 (human, UniProt P10747 19-152); experiment: Octet (BLI), scFv arm in the bsAb; value told in the text
T2 construct: also called Cluster of Differentiation 28; Tp44

[3] = molecular target: T2, human CD28; experiment: Octet (BLI), scFv arm in a bsAb; value told in the text
[4] = molecular target: T3, human PDL1 antigen (human, UniProt Q9NZQ7 19-238); experiment: Biacore (SPR), Fab arm in a bsAb; value told in the text
T3 construct: they are put here

[5] = molecular target: T3, human PDL1 antigen; experiment: Biacore (SPR), Fab arm in the bsAb; value told in the text

Binder	Kd [2] [nM]	Kd [4] [nM]	also measured
B1	–	–	binding result [1]: binds
B2	37	–	–
B3	286	–	–
B4	36	–	Kd [3]: 37 nM
B5	240	–	–
B6	180	–	–
B7	96	–	–
B8	–	0.86	–
B9	–	–	Kd [5]: 0.17 nM
B10	–	0.42	–
B11	–	0.17	–
B12	–	0.8	–
B13	–	–	binding result [1]: binds
